Assay results as given in US20210380703A1.
Numbering of substitutions follows the chain as printed.

B1: 374_H03 (antibody, V domains shown)
VH: EVQLLESGGGLVQPGGSLRLSCAASGFTFSSYGMNWVRQAPGKGLEWVSGINYNSGYKSYADSVKGRFTISRDNSKNTLYLQMNSLRAEDTAVYYCARSANWHDTALDYWGQGTLVTVSS
VL: DIQMTQSPSSLSASVGDRVTITCRASQSILSYVNWYQQKPGKAPKLVIYAATSRASGVPSRFSGSGSGTDFTLTISSLQPEDFATYYCQQSYDSPLTFGGGTKVEIK
B2: 374_H04 (antibody, V domains shown)
VH: B1 VH with S30D, G33S, K58T
VL: B1 VL with S31T, V33L, V47L, S94N
B3: 374_H06 (antibody, V domains shown)
VH: B1 VH with G50N, S55G, K58T, S59G
VL: B1 VL with L30V, D93N, S94L
B4: 374_H07 (antibody, V domains shown)
VH: B1 VH with S30D, S49A, G50N, S55G, K58T, S59G
VL: B1 VL with S31T, V33L, V47L, D93E, S94T
B5: 374_H09 (antibody, V domains shown)
VH: B1 VH with G33S, S49A, G50N
VL: B1 VL with V33L, A51V, R54L, S94L
B6: 375_A05 (antibody, V domains shown)
VH: B1 VH with S49A, G50N, S55G, S59G
VL: B1 VL with V33L, V47L, S94L
B7: 375_C06 (antibody, V domains shown)
VH: B1 VH with S30D, S31D, N35H, S49A, G50S, K58T
VL: B1 VL with S31T, A51T
B8: 375_D04 (antibody, V domains shown)
VH: B1 VH with S30D, S31D, Y32S, G33S, N35H, G50N, S55G, K58T, S59G, R98K
VL: B1 VL with D93E, S94L
B9: 375_D05 (antibody, V domains shown)
VH: B1 VH with G33S, S49A, G50S, K58T, A106H
VL: B1 VL with L30V, V33L, V47L, R54L, A55H, S94T
B10: 375_D07 (antibody, V domains shown)
VH: B1 VH with S49A, G50N, K58T, S59G
VL: B1 VL with L30I, S31T, V33L, V47L, S94T
B11: 375_D12 (antibody, V domains shown)
VH: B1 VH with S30D, G50S, K58T
VL: B1 VL with S31T, D93E, S94T
B12: 375_E01 (antibody, V domains shown)
VH: B1 VH with G33S
VL: B1 VL with S31T, V33L, Y92D
B13: 375_E07 (antibody, V domains shown)
VH: B1 VH with S31D, G33S, S49A, S59G
VL: B1 VL with L30V, S31T, V33L, V47L, A50V, A51V, S53N, A55E, D93E, S94T
B14: 375_H12 (antibody, V domains shown)
VH: B1 VH with S49A, S55G, S59G
VL: B1 VL with S31T, V33L, V47L, A50Y, A51V, S53N, A55Q, D93S, S94I
B15: 376_A04 (antibody, V domains shown)
VH: B1 VH with S30D, G33S, G50N, S55G, K58T
VL: B1 VL with L30V, S31T, V33L
B16: 376_A10 (antibody, V domains shown)
VH: B1 VH with S31D, G50N, S59G
VL: B1 VL with V33L, V47L, D93E
B17: 376_A12 (antibody, V domains shown)
VH: B1 VH with G33S, S49A, G50N, S59G
VL: B1 VL with S94T
B18: 376_B04 (antibody, V domains shown)
VH: B1 VH with S30D, N35H, S49A, G50S, S55G, K58T, S59G
VL: B1 VL with L30V, S94T
B19: 376_B05 (antibody, V domains shown)
VH: B1 VH with G33S, S49A, G50N, S55G, K58T, S59G
VL: B1 VL with L30I, V47L, D93E, S94L
B20: 376_B09 (antibody, V domains shown)
VH: B1 VH with S30D, G33S, S49A, G50N, S59G
VL: B1 VL with S31T, S94L
B21: 376_B11 (antibody, V domains shown)
VH: B1 VH with G33S, S55G, K58T
VL: B1 VL with S94L
B22: 376_C01 (antibody, V domains shown)
VH: B1 VH with S30D, G33S, S49A, S55G, K58T
VL: B1 VL with S31T, V33L, V47L, R54L, S94N
B23: 376_C02 (antibody, V domains shown)
VH: B1 VH with S30D, K58T
VL: B1 VL with L30V, V33L, A51V
B24: 376_C12 (antibody, V domains shown)
VH: B1 VH with G33S, S49A, S55G, K58T, S59G
VL: B1 VL with S31T, V47L
B25: 376_D05 (antibody, V domains shown)
VH: B1 VH with G33S, G50N, S55G, S59G
VL: B1 VL with L30V, V47L, R54L, S94T
B26: 376_D11 (antibody, V domains shown)
VH: B1 VH with S49A, G50N, S55G, K58T, S59G
VL: B1 VL with V33L, D93N, S94N
B27: 376_E03 (antibody, V domains shown)
VH: B1 VH with S49A, G50N, S55G, K58T, S59G
VL: B1 VL with R54L, S94L
B28: 376_E08 (antibody, V domains shown)
VH: B1 VH with S31D, S49A, S55G, K58T
VL: B1 VL with L30V
B29: 376_G08 (antibody, V domains shown)
VH: B1 VH with S30D, S49A, G50N, S55G, K58T
VL: B1 VL with S94T
B30: 376_G09 (antibody, V domains shown)
VH: B1 VH with S30D, G33S, S59G
VL: B1 VL with L30S, S31Y, V33L, V47L, A51V, S94N
B31: 376_H09 (antibody, V domains shown)
VH: B1 VH with S31D, G33S, S49A, G50N, S55G, K58T, S59G
VL: B1 VL with L30I, S31T, V33L, A50Y, A51V, T52S, S53N, R54L, A55P
B32: 376_H10 (antibody, V domains shown)
VH: B1 VH with S30D, G33S
VL: B1 VL with S31T, V33L, A55H
B33: 365_E02 (antibody, V domains shown)
VH: B1 VH with G33S, S49A, G50N, S55G, K58T, R98K, N101T, A106H
VL: B1 VL with L30I, V33L, V47L, D93E, S94N
B34: 370_G12 (antibody, V domains shown)
VH: B1 VH with G33S, S49A, S55G, S59G, N101T
VL: B1 VL with L30I, S31T, V33L, V47L, R54L, Y92D, D93E

Molecular target: human Fc (human)
Test: ELISA; negative control

| Binder | optical density |
| --- | --- |
| B1 | 0.162 OD |
| B2 | 0.167 OD |
| B3 | 0.166 OD |
| B4 | 0.163 OD |
| B5 | 0.158 OD |
| B6 | 0.202 OD |
| B7 | 0.2 OD |
| B8 | 0.182 OD |
| B9 | 0.202 OD |
| B10 | 0.176 OD |
| B11 | 0.193 OD |
| B12 | 0.164 OD |
| B13 | 0.158 OD |
| B14 | 0.188 OD |
| B15 | 0.245 OD |
| B16 | 0.279 OD |
| B17 | 0.22 OD |

| Binder | optical density |
| --- | --- |
| B18 | 0.293 OD |
| B19 | 0.242 OD |
| B20 | 0.227 OD |
| B21 | 0.261 OD |
| B22 | 0.324 OD |
| B23 | 0.222 OD |
| B24 | 0.438 OD |
| B25 | 0.215 OD |
| B26 | 0.267 OD |
| B27 | 0.234 OD |
| B28 | 0.332 OD |
| B29 | 0.22 OD |
| B30 | 0.23 OD |
| B31 | 0.281 OD |
| B32 | 0.318 OD |
| B33 | 0.357 OD |
| B34 | 0.418 OD |
